Experimental data reported in the domain aggregation screens of Martell et al. (2025).

Experiment: soluble fraction after stress (log2 fold change); higher = more stays soluble; pooled small domains, quantitative proteomics
Conditions: stress: 50 degC
Method in brief: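 Custom libraries of small protein domains were pooled and measured in a high-throughput format, with quantitative proteomics as the read-out. Each library was stressed at 50°C. The value is the log2 fold change in the amount of each protein that stays soluble after stress, used as a measure of aggregation propensity; higher values mean more of the protein stays soluble.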

| Sequence | soluble fraction (log2) |
| --- | --- |
| HMELGRQDSAQLGRWAAGILAKNGKKITGRTMEFFLSRTGDDMENISSELEKLISYTLGREVITEEDIEAV | -0.351 |
| HMKIEETLGKTAQVYIPIPQYLSGIGKVTLSVRGSLRELDAMTEEEKIPSNTIVRIVKVQDQVLFVKRA | -0.74 |
| HMDEVLDQFVRGQIYGYIRANPGDIYSSIRDNLGLKNGVTTYHLDVLAREEYVYSEIDGTNRRFYPSGWEE | -3.2 |
| HMILKNVPSNLVNQRLDKVATVLFQTYSRTQIKKWILEGRLLVNGEISNPKDLVNENDEIEINPI | -1.6 |
| HMDPTEPLFVGVVTAEPYLNIREYPTTQSKDLGDLFPGMHVNVYEIVPNWYRIDDGWVASAWVKRDWGGG | -1.2 |
| HMEGTAAAVALKGLMEQSGVDLREVMAAVESRGYYPKGTPFENYDPAFVSGVLVGAWDQVYKMILDQRPIP | -0.217 |
| HMEADERRNEILDAAETLITEKGYSKTTIIDILNQVGIAKGTFYYYFKSKEEVMDAIIERFI | -2.25 |
| HMAMDYEGFKKSVYALTSIDLNAYKERQMKRRIDTLIAKNKYNGYEDYTAAIKKDKALFEEFVNYLTIN | -0.284 |
| HMSSDLESVIGTHSQEANFALRSWGWIQPDETWKNLRPDQVSQILERANEFMAKAIESFANAQSE | -0.14 |
| HMYAGTWTTESGQWKYRQDDGTYAKGWLQDTDGRWYYFDANGRMLSNTATPDGYQVGEDGAWVNH | -0.196 |
| HMKAILHQESRSGFANATVIGGLDKFLDTNWNQLSKYIKKIETPYSDRSLEDRKIWISTILGILSTEI | 0.45 |
| HMPFESEMKHWIHLFAHELNLKVSDKYTQKIIEIFGNNFSEIFNEMSKSSLVSSNEKDLLNALEKSGNIH | -0.678 |
| HMAGNNTATKEIAELLIAKGADVNAMNLSPPGREIGGMTPLDMAILGNRNEIADLLRKHGGRTQKELKAE | 0.356 |
| HMRLHSSGEDYLKAIFILEAQHSSVRSVEVAEYMNVSKASVSHAVALLKKNGFLKMNQDYDLTER | 0.0124 |
| HMPRPRIHSVVRGDTLYGISRQYGVAMSKLASLNGLKSPYRIMVGRSLRLPSAIEAERDRTAREVVQ | -1.45 |
| HMFNLFPHLSVLRNITLAPQKVKGLNRSESNEIAMSLLERVGIPEQSDKFPSQLSGGQQQRVAIARALAM | -0.402 |
| HMNLKDINLNVRHYKIIDFVREHGYASIETLTRQFGVSAQTVRRDIIYLDNQAVLKRHHGGVGTLPG | -1.99 |
| HMFDFNNLSSLSDVELSVYRFVVNNPEKVAYMRVRDIAQKTHVANSSVMRFVHKIGFASFPEFKAYLKNIN | -1.03 |
| HMQISDSASVKTVVAEAIAANPKAVADFMNGKDTATRYLVGQVMKITKGQAKPELVNQLVLESLAELKEK | 0.335 |

| Sequence | soluble fraction (log2) |
| --- | --- |
| HMGASYSQFLDQVDSGNVQKVAFGGDMRGGTSQLTYTTRGGQSSTITAPFDRDLINVLRTKNVEIVQEEP | 0.139 |
| HMEAKTSNPDYHARLGLTEGEGNDSALGVSVKAAEGGFGLLFGNKVGSDQLVRFANEDQVWLVNRALS | 0.0188 |
| HMDRMMQPETWGRVYQWITDDPQVPDREEVLTLIKYHYGDFGKLMKLLHRLNEGKAWTYLSEHIFPRM | -0.123 |
| HMLTGISALKPTEAFPDEIFYEIFEIEDNIERTQYIESLRNTARQLKRVTEFNNLYKSFVLDYAQRQKQ | -1.51 |
| HMVPSTAVIFTELVSMRSEPATKSPVTHQLTKGTAITINEEKDGWYQVTDQTGNSGWIVKWAVKPTYFTNP | -0.0492 |
| HMEFDIDAAIHAALEPQAVMRAWFGHEGREYPEDFGVVFFRGWESFTHQEKVEAVRDAKKVLDRAVR | -0.516 |
| HMENLVPVVVATTNIEPRTQITDAMVKVEQIPALGRNESMLEDPALVVGGYATGKIYAGQSFIQPMVSK | 0.179 |
| HMKPGTIVTGVVVDIKSDVVVVNAGLKSEGIVPIEQFRNDRGELEVAIGDEVKVALDSLENGFGETVLSRE | 0.0252 |
| HMDAQLRVPDLTPYNYSELKENTSLYEGFTIEVVEERSTGDYAAGTVLDQDPKADTLIQDGDSTVIKLVIA | -0.12 |
| HMKVLNVLESEIVRLFKQGQQKDNIRDNIYKTHGQHYNNKKSFNVVFGRKWNSLLEQGFLES | -0.595 |
| HMKLIPLTDMRGQLRSGAPLPWGVRDAQGNLLLGKGHVIASDDMLEALLARGMFVDAEEAKAARG | 0.00271 |
| HMNKEHINLDSSKFLSLLNKTKISMSNDETRHYLNGIYIHPTVSNKSSYLTGVATDSHRLSSSSIPVD | 0.121 |
| HMQTFNADDIEPIIKEILQENPKAISDFLTGNENVVKFLLGQVMKNTKGKANPKVIEELLINQLRELNN | 0.00183 |
| HMSDIIVQGNRRLDTDLIITDSQIREIGTDEKSLSLAVKNLYKTGYFENVQIFKDNSVVFINVKENQ | -0.103 |
| HMVVGYRYVTNVANAVNFRQKPSASSTIITTIPYGTRIGYVEDANSEYARVKYDNMYGYVAKFYLSNYSPP | -3.27 |
| HMIYKLTLLRDLPEAKAGFDFYLRGGLASHDGEEWFSWVTREPIYARLYWLYVEKREEWVLVEETDI | -4.46 |
| HMKGLDAAVVDLFKSKGASIVFAGNRLSLSGEVADQATKDELLAKAKAILASLGASVSLDDKLMVKGAKAS | 0.0298 |
| HMIQTKKVTFTVEPTVNFEKINISGIEFKINSGSSITAIYEKNSHNFDEVLDFLKQKGVKILDIVTED | -0.118 |
| HMQASTGNVNTETLNLRKEASTSADILKLLSQGDEVEIVSESNGWYKVKYKDTEGFVSKEYITVN | 0.245 |
